Laboratory results reported in the nanobody polyreactivity screen of Harvey et al. (2022).

Test: yeast display, Sf9 membrane polyspecificity reagent, FACS + sequencing; frameworks hold sequencing errors
Outline: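 Sorting gates, low and high (top ~1%), were placed on anti-HA fluorescence to track expression and on streptavidin fluorescence to track reagent binding. A clone's polyreactivity label is taken from the gate it came out of. The reagent was 10% biotinylated, detergent-solubilized Sf9 membrane, applied for 1 hour at 4 °C to galactose-induced yeast display cells.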

Row | Sequence | polyreactivity (PSR sort gate)
1 | QVQLEESGGGLVQAGGSLRLSCAASGSIFPHYAMRWNRQAPGKERELVAAISRSGTSTYYADSVKGRFPISRDNAKNTVYLQMNSLKPEHTAVYYCNAYQVYTRTYGYWGQGTQVTVSS | high polyreactivity
2 | QVQLVESGGGLVQAGGSLRLSCAASGGIFGYYAMGWYRQAPGKEREFVAAITARGGRTYYADSVKGRFTISRDNAKNTVYLQMNSLKPEDTAVYYCAAYSPVWGRYYHRVERDYWGQGTQVTVSS | high polyreactivity
3 | QVQLVESGGGLVQAGCSLRLSCAASGLIFYYYAMGWYRQAPGKERELVAAITSDDRTYYADSVKGRFTISRDNAKNTVYLQMNSLKPEDTAVYYCAARYHGYLAQYRKYGYGYWGQGTQVTVSS | high polyreactivity
4 | QVQLVESGGGLVQAGGSLRLSCAASGSTFQLYAMGWYRQAPGKESELVASISWSGGSTYYADSVKGRFTISRDNAKNTVYLQMNSLKPEDTAVYYCAADSRLYLRDDYWGQGTQVTVSS | low polyreactivity
5 | QVQLVESGGGLVQAGGSLRLSCAASGRIFIFNAMGWYRQAPGKERELVAAISTRGGSTRYADSVKGRFTISRDNAKNTVYLQMNSLKPEDTAVYYCAAVYLYYAYAFDYWGQGTQVTVSS | high polyreactivity
6 | QVQLVESGGGIVQAGGSLRVSFAASGLIFYRYAMGWYRQAPGKERELVAAISSAGSTYYADSVKGRFPISRDNAKNTVYLQMNSLKPEDTAVYYCAKKKLLSVPPRGYVYVYYWGQGTQVTVSS | high polyreactivity
7 | QVQLVESGGGLVQAGGSLRLSCAASGSIYPYNAIGLYRQAPGKERELVAAISYRGGRTYYADSVMGRFTISRDNAKNTVYLQKNSLKPEDTAVYYCNADSIYSARGWLYGYWGQGTQVTVSS | low polyreactivity
8 | QVQLGESGGGLVPAGGSLRLSCAASGGTFKTNAMGWYRQAPGKERELVAAITGSGTSTYYADSVKGRFTISRDNAKNTVYLHMNSLKPEDTAVYYCAADNLYHPGIGDDYWGQGTQVTVSS | low polyreactivity
9 | QVQLVESGGGLVQGGGSLRLSCAASGRTLSYYAKGWYRQAPGKERELVADISWSGGSTYYADSVKGRFTISRDNAKNTVYLQMNSLKPEDTAVYYCAARVPGSIRSVGSVKQKYYYWGQGTQVTVSS | high polyreactivity
10 | QVQLVESGGGLVQAGGSLRLSCAASGRILGTNAKGWYRQAPGKERELVAAISRGGSTYYADSVKGRFTISRDNANNTVYLQMNSLKPEDTAVFYCAVTVLSKRRYYYWGQGTQVTVSS | high polyreactivity
11 | QVQLVESGGGLVQAGGSLRLSCAASGRTFPLYAMGWYRQAPGKERELVASITTDSSTYYADSVKGLFTISRDNAKYTVYLQMNSLKPEDTAVYYCAATTIPYPYTEFDYWGQGTQVTVSS | low polyreactivity
12 | QVQLVESGGGLVQAGGSLRLSCAASGSISSVYGMGWYRQAPGKERELVAAITSNGGSTYYADSVKGRFTISRDNAKNTVYLQMNSMKPEDTAVYYCAAKYGSRGYYSRGRYYWGQGTQVTVSS | high polyreactivity
13 | QVQLVESGGGLVQAGGSLRLSCDASGFTFTRNAMGWYRQAPGKERELVDAISKRGGTTYYADSVKGRFTISRDYAKNTVYLQMNTLKPEDTSVYYCAKDGGITGGYWGQGTQVTVSS | high polyreactivity
14 | QVQLVESGGGLVQAGGSHRLSCAASGSTFLNNAMGWYRQAPGKERELVATITSGGITNYADSVKGRFTISRDNAKNTVYLQMNSLKPEDTAVYYCNGETWGFTYYYWGQGTQVTVSS | low polyreactivity
15 | QVQLVESGGGLVQAGGSLRLSCAASGSIFVYYTMGWYRQAPGKERELVAAISISGTSTYYADSVKGRFTNSRDNAKNTVYLQMNSLKPEDTAVYYCAADTYYGEDYWGQGTQVTVSS | low polyreactivity
16 | QVQLVESGGGLVQAGGSLRLSCAASGFIFRYYTMGWYRQAPRKERELVASITSGGSTYYADSVKGRFTSSRDNAKNTVYLQMNCLKPEDTAVYSCAKHRDVLWRYKYWGQGTQVTVSS | high polyreactivity
17 | QVQLVDSGGGLVQAGGSLRLSCAASGSTFTYNSMGGYRQAPGKERELVAAITWSSDITYYADSVKGRFTISRDNAKNTVYLQMNSLIAEDTAVYYCAAYLFGPSIDDYPAFYYDYGYWGQGTQVTVSS | low polyreactivity
18 | QVQLVESGGGLVQAGGSLRLSCAASGRTFYRYAMGWYRQAPGKEREFVAAISNGGSNTRYADSVKGRFTISRDNAKNTVYLQMNSLKPEDTAVYYCAADYKRNQEVDYWGQGTQVTVSS | high polyreactivity
19 | QVQLVESGGGLVQAGGSLRLSCAASGSIFQGYAMGWYRQAPGKERELVAVITSSGGSTYYADSVKGRFTISRDNAKNTVYLQMNSLKPEDTAVYYCAVGLLVYSRTYIGQAFFRYNYWGQGTQVTVSS | high polyreactivity
20 | QVQLVESGGGLVQAGGSLRLSCAASGRTFSYYAMGWYRPAPGKEREFVAAISSTGTSTYYADSVKGRFTISRDNAKNTVYLQMNSLKPEDTAVYYCNARVATYRLHSKFYYWGQGTQVTVSS | high polyreactivity

Row | Sequence | polyreactivity (PSR sort gate)
21 | QVQLVESGGGLVQAGGSLRLSCAASGRTFRYYTMGWYRQAPGTERELVAAITGGSRTNYADSVKGRFTISRDNAKNTVYLQMNSLKPEDTAVYYCAARRSYLLRYDYWGQGTQVTVSS | high polyreactivity
22 | QDQLVESGGGLVQAGGSLRLSCAASGRTFGVNAMGWYRQAPGKERELVASIRWNGGSTYYADSVKGRFTISRDNAKNTVYFQMNSLKPEDTAVYYCNAVRRYRSREFDYWGQGTQVNVSS | low polyreactivity
23 | QVQLVESGGGLVQAGGSLRLSCAASGRLFYRNAMGWYRQAPGKERELVAAISSSAGSTYYADSVKGRFTISRDNAKNTVYLQMNSLKPEDTAVYYCAASLYSWGQGTQVTVSS | high polyreactivity
24 | QVQLVESGGGLVQAGGSLRLSCAPSGFTFYPYAMGWSRQAPGKERELVAAIRYSGGSTYYADSVKGRFTISRDNAKNTVYLQMNSLKPEATAVYYCAADGSNPWYRNSWSRYRFGYWGQGTQVTVSS | high polyreactivity
25 | QVQLVESGGGLVQAGGSLRLSCAASGSTFAGNAMGWYRQAPGKERELVAAITSGTGTHYADSVKGRFTISRDNAKNSVYLQMNSLKPEDTAVYYCAAEVWTWAGIWGYEYWGQGTQVTVSS | low polyreactivity
26 | QVQHVESGGGLVQARGSLRLSCAASGFTFLAYAMGWYRQAPGKERELVAAINSSDCTTHYADSVKGRFTISRDYAKNTVYLQMNSLKPVDTAVYYCNTDWAYLSDYWGQGTQVTVSS | low polyreactivity
27 | QVQLVESGGGLVQAGGSLRLSCAASGGTFRYYAMGRYRPAPGKERDLVARIRYNGGSTYYADSVKGRFTISRDNAKNTVSLQMKSLKPEDTAVDYCAAVGRYPRTWMNYWGQGNQVTVSS | high polyreactivity
28 | QVHLVESGGGLVQAGGSLRLSCAASGSTFSWYDMGWYRQAPGKERELVAAISTTGSTYYADSVKGRFTISRDNAKNTVYLQMNSLKPEDTAVYYCAADYISIAWYRLFYDYDYWGQGTQVTVSS | high polyreactivity
29 | QVKLVESGGGLVQAGGSLRLSCAASGSTFYKYTMGWNRQEPGKGRELVAAINWSGSTYYADSVKGRFTISRDNAKNTVYLQMNSLKTEDTAVYYCAATYIYRYDYWGQGTQVTVSS | high polyreactivity
30 | QVQLVESGGGLFQAGGSLRLSCAASGSTFSPNGMGWYRQSPGKERELVAVISTTGGGTYYADSVKVRFTISRDNAKNTVYLQLNSLKPEDTAVYYCAADVWTYSWSWRKYVEFNYWGQGTQVTVSS | high polyreactivity
31 | QVQLVESGGGLVQAGGILRLSCAACGITVTSYAMGWYRQAPGKERELVAVITGTGGITYYADSVKGRFTISRDNAKNTVYLQMNSLKPEDTAVYYCAAELELREYDYWGQGNQVTVSS | high polyreactivity
32 | QVQLVESGGGLVQAGGSLRLSCAASGFTFYIYAMGWYRQAPGKERELVAAITGSGGRTYYADSVKGRFTISRDTAKNTVYLQMNSLKPEDTAVYYCAADKYRRGLAGAVARVNYWGQGTQVTVSS | high polyreactivity
33 | QVQLQESGGGLVQAGGGLRLSCAASGSILNQAPMGWYRQAPGKERELVATINEGSITNYADSVKGRFTISRDNAKNTVYLQMNSLKPEDTAVYYCAVNKYIGLDYHYWGQGTQVTVSS | low polyreactivity
34 | QVQLVESGGGLVKAGGRLRLSSAASGSIFASYSIGWYRQAPWKERELVAAITVRGGRTYYADSVKGRFTISRDNAKNTVYLQMNSLKPEDTAVYYCAAVGKNRSWYDYWGQGTQVTVSS | high polyreactivity
35 | QVQLVESGGVLVQAGGSLRLSCAASGLIFPSYALGWYRQAPGKERELVAAITFSGSDTNYADSVKGRFTISRDNAKNTVSLQMKSLKPEDTAVYYCAAAYFDFWGWLHDYWGQGTQVTVSS | low polyreactivity
36 | QVQLVESGGGLVQAGGSLRLSCAASGGTFYGYAAMGWYRQAPGKERELVAAISRSGGRTYYADSVKGRFTISRDNAKNTVYLQMNSLKPEDTAVYDCNVGFYPYSFLTFQGGDYWGQGTQVTVSS | high polyreactivity
37 | QVQLVESGGGLVQAGGSLRLSCAASGFTLDWYVMGWYRQAPGKERELVAAISSSGGRTYYADSVKGRFTISRDNAKNTVYLQRNSLKPEDTAVYYCAARNKYGGYPYGYDYWGQGTQVTVSS | high polyreactivity
38 | QVQLVESGGGLVQAGGSLRLSCAASGSIFTVYAMGWYRPAPGTERELVARISSGAGTTYADSVKGRFTISRDNAKNTVYVQMKSLTPEDTAVYYCAAYTWDTDHYWYGYVPYDYWGQGTQVSVSS | low polyreactivity
39 | QVQLVESGGGLVQAGGSLRLSCAASGSILRKYAMGWYRQAPGKERELVAAISGSGGRTHYADSVKGRFTISRDNAKNTVYLQMNSLKPEDTAVYYCARRIKLGQRQGGYYWGQGTQVTVSS | high polyreactivity
40 | QVQLVESGGGLVQAGGSLRLSCAASGSTFLWNAMGWYRPAPGKERELVAAISYSGGSTYYADSVKGRFTISRDNAKNTVYLQMNSLKPEVTAVYYCAKEWFYDPYPPGYDYWGQGTQVTVSS | low polyreactivity
